This passage reports percent of DCC-HaloTag speckles in grip (immobile) phase in growth-cone filopodia of hippocampal neurons on netrin-1-coated substrate, TIRF speckle imaging (15% grip on polylysine alone) results from publication PMC10875621.

In this experiment the target is netrin-1 (UniProt O95631).

Consider “DCC-HaloTag (from UniProt P43146 26-1447) (receptor)”, for which the percent of DCC-HaloTag speckles in grip (immobile) phase in growth-cone filopodia of hippocampal neurons on netrin-1-coated substrate, TIRF speckle imaging (15% grip on polylysine alone) was found to be 40%.
